The text below walks through data of patent publication US20160040149A1, “Compositions Having Dicamba Decarboxylase Activity and Methods of Use” (priority 2013, published 2016).

First the molecules themselves.
B1: 99 (protein, listed as Ralstonia solanacearum)
chain: MAIIDCHGHFTTAPTALEDWRKRQIANLATPALGPSPDDLKISDDALTEAIRANQLRLMQARGSDLTIFSPRASFMAHHIGDFHTSATWAAICNALCHRVSQLFPDHFVGAAMLPQSPGVDIRTCIPELARCIVDYGFVGVNLNPDPSGGHWTSPPLSDPYWFPLYEKLVEYDVPAMIHVSTSCNACFHTTGAHYLNADTTAFMQVLTSDLFRRFPTLKFVIPHGGGAVPYHWGRFRGLAQELKTPPLQEHLLHNVFFDTCVYHQPGIDLLTRVIPVDNILFASEMIGAVRGIDPETGHPFDDTRRYIDQAHTLSAEDRHKIYEGNARRVYPRLDARLKARGR
B2: 103 (protein)
chain: MAMEIPTEEIKFLKKEDVQNIDLNGMSKKERYEIWRRIPKVELHCHLDLTFSAEFFLKWARKYNLQPNMSDDEILDHYLFTKEGKSLAEFIRKAISVSDLYRDYDFIEDLAKWAVIEKYKEGVVLMEFRYSPTFVSSSYGLDVELIHKAFIKGIKNATELLNNKIHVALICISDTGHAAASIKHSGDFAIKHKHDFVGFDHGGREIDLKDHKDVYHSVRDHGLHLTVHAGEDATLPNLNTLYTAINILNVERIGHGIRVSESDELIELVKKKDILLEVCPISNLLLNNVKSMDTHPIRKLYDAGVKVSVNSDDPGMFLSNINDNYEKLYIHLNFTLEEFMIMNNWAFEKSFVSDDVKSELKALYF
modifications: Plasmodium yoelii yoelii
B3: 6 (protein)
chain: MAEILSPEESIYYSKLSNDILAEGIKKNPTRFRGFAALPTPDPIQAAMELERCIKLGGFVGAIINGHINGHYLDEIQFDPILEAADALDVPLYIHPAVPPKAIIDTYYKMNDTYAQTVMVSGGWGWHIETGVHVLRLISSGVFDRHPNLKIVIGHLGEGLPFFMHRLNNAIGGNLKKSYSTYLKENIYYTISGFNDPDLFQFVLKKVGENNIMFSSDYPFNFPKREVELFNELNISEEVREKISFKNAERILKI
modifications: Treponema brennaborense
B4: 104 (protein)
chain: MANILQEPIDFLKKEELKNIDLSQMSKKERYKIWKRIPKCELHCHLDLCFSADFFVSCIRKYNLQPNLSDEEVLDYYLFAKGGKSLGEFVEKAIKVADIFHDYEVIEDLAKHAVFNKYKEGVVLMEFRYSPTFVAFKYNLDIELIHQAIVKGIKEVVELLDHKIHVALMCIGDTGHEAANIKASADFCLKHKADFVGFDHGGHEVDLKEYKEIFDYVRESGVPLSVHAGEDVTLPNLNTLYSAIQVLKVERIGHGIRVAESQELIDMVKEKNILLEVCPISNVLLKNAKSMDTHPIRQLYDAGVKVSVNSDDPGMFLTNINDDYEELYTHLNFTLEDFMKMNEWALEKSFMDSNIKDKIKNLYF
modifications: Plasmodium Vivax
B5: 106 (protein, listed as Pyrococcus horikoshii)
chain: MAGMKFIKNLHVSKLVIDSMKALINGTIYTSFNPLKKVSGLVISHGKVIYAGDSEVAKKIVELSGGEIVDLKGKYVMPAFFDSHLHLDELGMSLEMVDLRGAKSIEELIQRLKRGKGRIIFGFGWDQDELGEWPTRKELNAIDKPVFIYRKCFHVAVANDKMLELLNLTPSKDFDEDTGIIKEKSLEEARKVINERVLTVEDYVYYIKRAQEHLLDLGVKSVSFMSVNEKALRALFYLEREGKLSINVFAYVTPEVLDKLESIGLGRFQGNRLTIAGVKLFTDGSLGARTALLSKPYSDDPSTSGQLVMEREELIRITEKARSLGLDVAIHAIGDKALDVALDVFETTGFPGRIEHASLVRDDQLERVKNLKVRLSVQPHFIISDWWIVERVGEERVKWVYRFKDLMKVAELGFSTDSPIEPADPWLTVDAAVNRGKGKVKLYELTKDQALDIKDALHSYTYGSARVSLASDIGKLEPGFKAEYIILDRDPLVVK
B6: 7 (protein, listed as Legionella pneumophila)
chain: MAIVDFETHFITEACIDYLTQRQEVPKLVPELNGAYTMCFTPDVSLFHTSALMEELLSLNEQRLAIMDQAGVTIQVLSLTTINGIDSCPGDENKSTALAREVNDQLYSAIQRHPERFKGFASISPYDVKEGVKELERAISQLGFVGWLTHSNFGEDNYLDDKTYWPLLEAAEGLNIPIYLHPNVPIMREFGKYGFALGGSALGFEFDTALCLMRMILGGVFDAFPKLKIMLGHLGETMPFLMERLDHLYRIPDLKAYRPSIQRIPSEVLRQNVYITTSGRFFVPALRYVLEVMGEDRVLFASDYPMESLLDATRFIQDSDLSNQTKQKIFSINAKNLNLI
B7: 98 (protein)
chain: MAIIDCHGHYTTAPAAHDAFRKAQIAHHDDPQQPAPQYPHISDDALRESIEQHQLRLLRERGADMTIFSPRASTMAHHIGNEAVSQVWTQRCNDLIARVVQLYPHTFIGVCQLPQSPGVPISHSIAELERCVNELGFVGCNLNPDPSGGHWNGVPLTDRAWYPFFEKMVELDVPAMVHVSGSCNANFHATGAHYLNADTTAFMQFLEGDLFRDFPSLRFIIPHGGGAVPYHWGRFRGLADMLGKPPLATHVMRNVFFDTCVYHQPGIDLLFEVIDIDNILFGSEMVGAVRGIDPQTGHYFDDTKRYIDALTISDADKRKVFEGNARRVYPRLDAQLRARGL
modifications: Xanthomonas campestris pv.
B8: 123 (protein)
chain: MAQGKVALEEHFAIPETLQDSAGFVPGDYWKELQHRLLDIQDTRLKLMDAHGIETMILSLAAPAVQAIPDRRKAIEIARRANDVLAEECAKRPDRFLAFAALPLQDPDAATEELQRCVNDLGFVGALVNGFSQEGDGQTPLYYDLPQYRPFWGEVEKLDVPFYLHPRNPLPQDSRIYDGHPWLLGPTWAFAQETAVHALRLMASGLFDEHPRLNIILGHMGEGLPYMMWRIDHRVAWVKLPPRYPAKRRFMDYFNENFHITTSGNFRTQTLIDAILEIGADRILFSTDWPFENIDHASDWFNATSIAEADRVKIGRTNARRLFKLDGA
modifications: Dicamba decarboxylase variant clone: S03902153
B9: 124 (protein)
chain: MAQGKVALEEHFAIPETLQDSAGFVPGDYWKELQHRLLDIQDTRLKLMDAHGIETMILSLAAPAVQAIPDRRKAIEIARRANDFLAEECAKRPDRFLAFAALPLQDPDAATEELQRCVNDLGFVGALVNGFSQEGDGQTPLYYDLPQYRPFWGEVEKLDVPFYLHPRNPLPQDSRIYDGHPWLLGPTWAFAQETAVHALRLMASGLFDEHPQLNIILGHMGEGLPYMMWRIDHRVAWGKLPPAYPAKRRFMDYFNENFHITTSGNFRTQTLIDAILEIGADRILFSTDWPFENIDHASDWFNATSIAEADRVKIGRTNARRLFKLDGD
modifications: Dicamba decarboxylase variant clone: S03969214
B10: 107 (protein, listed as Rhodopseudomonas palustris)
chain: MAIIDIHGHYTTAPKALEDWRNRQIAGIKDPSVMPKVSELKISDDELQASIIENQLKKMQERGSDLTVFSPRASFMAHHIGDFNVSSTWAAICNELCYRVSQLFPDNFIGAAMLPQSPGVDPKTCIPELEKCVKEYGFVAINLNPDPSGGHWTSPPLTDRIWYPIYEKMVELEIPAMIHVSTSCNTCFHTTGAHYLNADTTAFMQCVAGDLFKDFPELKFVIPHGGGAVPYHWGRFRGLAQEMKKPLLEDHVLNNIFFDTCVYHQPGIDLLNTVIPVDNVLFASEMIGAVRGIDPRTGFYYDDTKRYIEASTILTPEEKQQIYEGNARRVYPRLDAALKAKGK
B11: 97 (protein, listed as Sphingobium sp.)
chain: MAMMIIDCHGHYTVLPKAHDEWREQQKAAFKAGQPAPPYPEISDDEIRETIEANQLRLIKERGADMTIFSPRASAMAPHVGDQSVAVPWAQACNNLIARVVDLFPETFAGVCMLPQSPEADMTSSIAELERCVNELGFIGCNLNPDPGGGHFKHPPLTDRFWYPFYEKMVELDVPAMIHVSGSCNPAMHATGAYYLAADTIAFMQLLQGNLFADFPTLRFIIPHGGGAVPYHWGRFRGLADMLKQPSLDTLLMNNVFFDTCVYHQPGINLLADVIDNKNILFGSEMVGAVRGIDPTTGHYFDDTKRYIDALDISDQERHAIFEGNTRRVFPRLDAKLKARGL
B12: 105 (protein)
chain: MAIDFHVHLDLYPDPVAVARACEERQLTVLSVTTTPAAWRGTLALAAGRPHVWTALGFHPEVVSERAADLPWFDRYLPETRFVGEVGLDGSPSLRGTWTQQFAVFQHILRRCEDHGGRILSIHSRRAESEVLNCLEANPRSGTPILHWYSGSVTELRRAISLGCWFSVGPTMVRTQKGAALIRSMPRDRVLTETDGPFLELDGQAALPWDVKSVVEGLSKIWQIPASEVERIVKENVSRLLGTVR
modifications: Deinococcus radiodurans
B13: 102 (protein, listed as Lactobacillus plantarum)
chain: MATKTFKTLDDFLGTHFIYTYDNGWEYEWYAKNDHTVDYRIHGGMVAGRWVTDQKADIVMLTEGIYKISWTEPTGTDVALDFMPNEKKLHGTIFFPKWVEEHPEITVTYQNEHIDLMEQSREKYATYPKLVVPEFANITYMGDAGQNNEDVISEAPYKEMPNDIRNGKYFDQNYHRLNK
B14: 96 (protein)
chain: MAPLIVDVHTHVYPPAYMQMLRSRKTVPYVHDPSNNRDPRLIILSSDDDASIPLDQRGRPVDSSYWDINVKLSFMRQHGINCSVISLANPWLDFVEPAEAQMWAERINDDLEKTCATVNKAADPGNTLTLDQKETLFAFGALPLSAPSSESVVAEIKRLKTLEHLRGVIMGTSGLGKGLDDARLDPVWEALQETDMLMFLHPHYGLPEEAYGGPETTGRYGHVLPLALGFPLETTIAVTRMLLSGVFDRFPRLKILLAHSGGTLPFLAGRIESCILHERKFISGGGDVQGPQRSVWDVLKTNIYLDAVVYGKPGLEAAMTASGSDRLLFGTDHPFFPPLDSKDNSWPSVTTNYQAIHATFDTNSKTVADVLGGNAARILNLK
modifications: Aspergillus nidulans
B15: 101 (protein, listed as Aquifex aeolicus)
chain: MAQKIALCITGASGVIYGIKLLQVLEELDFSVDLVISRNAKVVLKEEHSLTFEEVLKGLKNVRIHEENDFTSPLASGSRLVHYRGVYVVPCSTNTLSCIANGINKNLIHRVGEVALKERVPLVLLVREAPYNEIHLENMLKITRMGGVVVPASPAFYHKPQSIDDMINFVVGKLLDVLRIEHNLYKRWRG

A short description of this test: Saturation mutagenesis of SEQ ID NO:109: dicamba decarboxylation activity of point mutants (CO2 released), fold of backbone (Tables 7, 8, Megatable 1). To be noted: decarboxylation activity (CO2 released) of point mutant vs unmutated backbone protein; backbone SEQ ID NO: 109.
Consider B1, for which the “Fold Activity” value was found to be 1.7 fold.

Turning to B2, the “Fold Activity” value came out at 1.7 fold.

B3: the “Fold Activity” value came out at 0.9 fold.

On to B4, for which the “Fold Activity” value is on record as 2.1 fold.

B5: the “Fold Activity” value was 0.8 fold.

In the case of B6, the “Fold Activity” value is given as 1.3 fold.

As for B7, the “Fold Activity” value is listed as 2.3 fold.

On to B8, for which the “Fold Activity” value is 1.3 fold.

With B9, the “Fold Activity” value was 1.4 fold.

Consider B10, for which the “Fold Activity” value is reported as 1.7 fold.

For the molecule B11, the “Fold Activity” value stood at 2.9 fold.

As to B12, the “Fold Activity” value was found to be 0.9 fold.

Regarding B13, the “Fold Activity” value is given as 2.6 fold.

Turning to B14, the “Fold Activity” value was 1.1 fold.

On to B15, for which the “Fold Activity” value was found to be 1.8 fold.
